Source: publication doi:10.1101/2020.08.05.237479

Target: MBP-NES^MVM
Assay: MST

yCRM1a C152S/C539T (from UniProt P30822 1-1055) (receptor)
fold weaker affinity than the C152/C539/C1022 triple mutant: 5 fold
